Laboratory results from paper PMC10377000, “LSPR-Based Aptasensor for Rapid Urinary Detection of NT-proBNP”.

Molecular target: NT-proBNP (UniProt P16860)
Assay: AuNP aggregation (LSPR, A750/A521), Hill fit; diluted urine; Hill n = 0.0751; NT-proBNP in 5 mM PBS pH 7.4; aptamer in 10 mM Tris-HCl, 0.2 mM EDTA (0.25 uM in assay); 15 min incubation; then citrate AuNPs and 40 uL 0.2 M NaCl; 25 C stated for CD sample only
Settings: protein: commercial; antiparallel G4 proposed from CD

Sequence of NT-proBNP (P16860 27-134): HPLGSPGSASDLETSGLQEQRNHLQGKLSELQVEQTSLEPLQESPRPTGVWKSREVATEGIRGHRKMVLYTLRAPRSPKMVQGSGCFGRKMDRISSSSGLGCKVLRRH

B1: NT-proBNP aptamer (structured_DNA)
DNA: GGCAGGAAGACAAACAGGTCGTAGTGAAACTGTCCACCGTAGACCGGTTATCTGTTGGTCTGTGGTGCTGT
Kd: 2.71 nM
